Results on 2 variants are retold here after IntAct's records for PubMed 18930710.

B1: Ras-related protein Rap-2a (Homo sapiens), P10114 (parent)
chain: MREYKVVVLGSGGVGKSALTVQFVTGTFIEKYDPTIEDFYRKEIEVDSSPSVLEILDTAGTEQFASMRDLYIKNGQGFILVYSLVNQQSFQDIKPMRDQIIRVKRYEKVPVILVGNKVDLESEREVSSSEGRALAEEWGCPFMETSAKSKTMVDELFAEIVRQMNYAAQPDKDDPCCSACNIQ

Variants of B1 are the subject of the first experiment. Particulars: with mink1_human MINK1, Q8N4C8.
mink1_human MINK1, Q8N4C8, sequence (Q8N4C8 whole entry, looked up): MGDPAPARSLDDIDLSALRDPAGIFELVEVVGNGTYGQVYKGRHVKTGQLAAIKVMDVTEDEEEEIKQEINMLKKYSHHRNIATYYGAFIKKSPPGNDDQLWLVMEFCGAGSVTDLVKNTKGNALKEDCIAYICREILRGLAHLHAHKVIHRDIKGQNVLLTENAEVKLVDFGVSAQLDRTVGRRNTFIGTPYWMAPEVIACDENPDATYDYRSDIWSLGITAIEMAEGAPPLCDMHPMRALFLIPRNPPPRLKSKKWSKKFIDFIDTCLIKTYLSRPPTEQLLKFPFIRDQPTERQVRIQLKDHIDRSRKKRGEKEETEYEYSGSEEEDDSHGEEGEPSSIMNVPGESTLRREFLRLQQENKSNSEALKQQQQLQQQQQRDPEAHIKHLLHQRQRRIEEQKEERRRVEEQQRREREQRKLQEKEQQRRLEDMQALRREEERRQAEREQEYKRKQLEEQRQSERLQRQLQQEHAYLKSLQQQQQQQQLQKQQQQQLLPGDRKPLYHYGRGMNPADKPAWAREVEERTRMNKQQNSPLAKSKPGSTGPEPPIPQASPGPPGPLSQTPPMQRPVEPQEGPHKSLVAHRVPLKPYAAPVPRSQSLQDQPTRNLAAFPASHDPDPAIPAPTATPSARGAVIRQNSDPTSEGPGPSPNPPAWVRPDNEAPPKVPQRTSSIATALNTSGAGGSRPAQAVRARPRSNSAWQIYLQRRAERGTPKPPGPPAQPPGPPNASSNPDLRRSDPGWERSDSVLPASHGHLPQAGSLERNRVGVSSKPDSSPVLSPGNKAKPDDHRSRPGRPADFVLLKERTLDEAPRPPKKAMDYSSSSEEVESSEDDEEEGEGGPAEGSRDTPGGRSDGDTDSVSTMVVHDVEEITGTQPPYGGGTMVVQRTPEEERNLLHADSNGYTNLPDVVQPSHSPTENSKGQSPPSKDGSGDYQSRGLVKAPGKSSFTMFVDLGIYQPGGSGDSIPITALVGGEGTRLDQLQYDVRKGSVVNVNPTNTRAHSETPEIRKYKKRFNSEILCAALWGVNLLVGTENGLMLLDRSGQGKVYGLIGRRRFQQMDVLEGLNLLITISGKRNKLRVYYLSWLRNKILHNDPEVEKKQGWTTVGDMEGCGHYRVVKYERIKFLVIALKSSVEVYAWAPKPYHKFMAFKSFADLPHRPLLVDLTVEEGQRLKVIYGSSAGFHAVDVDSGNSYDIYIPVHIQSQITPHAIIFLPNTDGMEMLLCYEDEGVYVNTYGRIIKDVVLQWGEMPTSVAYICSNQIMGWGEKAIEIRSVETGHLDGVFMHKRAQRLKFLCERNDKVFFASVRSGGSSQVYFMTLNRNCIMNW
Regarding MREYKVVVLGSGGVGKNALTVQFVTGTFIEKYDPTIEDFYRKEIEVDSSPSVLEILDTAGTEQFASMRDLYIKNGQGFILVYSLVNQQSFQDIKPMRDQIIRVKRYEKVPVILVGNKVDLESEREVSSSEGRALAEEWGCPFMETSAKSKTMVDELFAEIVRQMNYAAQPDKDDPCCSACNIQ [S17N], the “effect of a mutation on the interaction” value is given as “disrupting interaction”.
Still for that read-out and setting: next, MREYKVVVLGSGGVGKSALTVQFVTGTFIEKYDPTIEDSYRKEIEVDSSPSVLEILDTAGTEQFASMRDLYIKNGQGFILVYSLVNQQSFQDIKPMRDQIIRVKRYEKVPVILVGNKVDLESEREVSSSEGRALAEEWGCPFMETSAKSKTMVDELFAEIVRQMNYAAQPDKDDPCCSACNIQ [F39S]: “disrupting interaction”.

Variants of B1 are the subject of a further experiment. Particulars: with mink1_mouse Mink1, Q9JM52.
mink1_mouse Mink1, Q9JM52, sequence (Q9JM52 whole entry): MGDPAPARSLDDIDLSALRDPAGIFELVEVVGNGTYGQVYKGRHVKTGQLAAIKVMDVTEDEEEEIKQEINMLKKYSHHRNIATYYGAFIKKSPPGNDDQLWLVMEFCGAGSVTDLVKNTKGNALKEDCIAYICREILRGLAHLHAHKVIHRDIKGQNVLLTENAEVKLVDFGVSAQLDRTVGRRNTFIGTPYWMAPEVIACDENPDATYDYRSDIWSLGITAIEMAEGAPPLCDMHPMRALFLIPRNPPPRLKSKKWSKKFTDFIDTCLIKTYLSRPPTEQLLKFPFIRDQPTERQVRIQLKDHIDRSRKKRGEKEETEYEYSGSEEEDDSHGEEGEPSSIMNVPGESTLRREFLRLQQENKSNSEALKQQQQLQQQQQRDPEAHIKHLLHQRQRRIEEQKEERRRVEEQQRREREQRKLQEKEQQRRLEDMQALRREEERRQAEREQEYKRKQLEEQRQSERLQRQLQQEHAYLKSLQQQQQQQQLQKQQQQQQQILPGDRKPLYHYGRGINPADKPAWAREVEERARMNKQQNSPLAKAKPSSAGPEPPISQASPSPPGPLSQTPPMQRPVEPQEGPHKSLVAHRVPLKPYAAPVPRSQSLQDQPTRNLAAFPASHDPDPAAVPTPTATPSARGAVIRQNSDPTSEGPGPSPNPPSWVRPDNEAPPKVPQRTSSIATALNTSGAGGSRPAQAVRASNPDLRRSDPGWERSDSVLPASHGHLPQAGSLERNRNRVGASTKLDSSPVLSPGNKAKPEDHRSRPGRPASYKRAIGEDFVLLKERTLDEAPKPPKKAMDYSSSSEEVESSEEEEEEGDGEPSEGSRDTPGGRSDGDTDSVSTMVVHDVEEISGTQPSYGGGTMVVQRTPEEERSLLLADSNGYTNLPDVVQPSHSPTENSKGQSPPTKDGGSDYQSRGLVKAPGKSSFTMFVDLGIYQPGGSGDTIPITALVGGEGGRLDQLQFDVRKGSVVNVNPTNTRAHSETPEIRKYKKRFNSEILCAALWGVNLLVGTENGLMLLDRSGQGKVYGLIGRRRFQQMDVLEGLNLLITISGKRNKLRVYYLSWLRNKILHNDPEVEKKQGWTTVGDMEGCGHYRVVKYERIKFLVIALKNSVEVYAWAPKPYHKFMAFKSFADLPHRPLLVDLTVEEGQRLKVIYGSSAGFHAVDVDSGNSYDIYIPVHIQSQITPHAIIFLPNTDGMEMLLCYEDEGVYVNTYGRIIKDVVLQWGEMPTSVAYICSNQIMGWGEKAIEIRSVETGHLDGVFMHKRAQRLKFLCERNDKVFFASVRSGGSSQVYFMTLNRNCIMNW
On to MREYKVVVLGSGGVGKSALTVQFVTGTFIEKYDPTIEDSYRKEIEVDSSPSVLEILDTAGTEQFASMRDLYIKNGQGFILVYSLVNQQSFQDIKPMRDQIIRVKRYEKVPVILVGNKVDLESEREVSSSEGRALAEEWGCPFMETSAKSKTMVDELFAEIVRQMNYAAQPDKDDPCCSACNIQ [F39S], for which the “effect of a mutation on the interaction” value is on record as “decreasing interaction”.
